Laboratory results taken from patent USRE47150 (Bayer, dated 2018).

T1: mouse tissue factor pathway inhibitor (TFPI) (mouse, UniProt O54819 29-289, limits assumed)
T1 construct: bought; also called mTFPI; murine TFPI
T1 sequence (looked up): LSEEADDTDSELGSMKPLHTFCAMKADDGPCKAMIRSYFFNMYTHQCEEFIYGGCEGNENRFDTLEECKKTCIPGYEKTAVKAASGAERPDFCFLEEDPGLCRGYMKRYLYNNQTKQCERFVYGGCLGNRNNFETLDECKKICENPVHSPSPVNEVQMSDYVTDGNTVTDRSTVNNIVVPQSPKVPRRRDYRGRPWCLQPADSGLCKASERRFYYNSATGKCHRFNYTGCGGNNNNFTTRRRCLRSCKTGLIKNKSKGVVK

T2: human tissue factor pathway inhibitor (TFPI) (human, UniProt P10646 29-304, limits assumed)
T2 construct: bought; also called hTFPI; human TFPI
T2 sequence (looked up): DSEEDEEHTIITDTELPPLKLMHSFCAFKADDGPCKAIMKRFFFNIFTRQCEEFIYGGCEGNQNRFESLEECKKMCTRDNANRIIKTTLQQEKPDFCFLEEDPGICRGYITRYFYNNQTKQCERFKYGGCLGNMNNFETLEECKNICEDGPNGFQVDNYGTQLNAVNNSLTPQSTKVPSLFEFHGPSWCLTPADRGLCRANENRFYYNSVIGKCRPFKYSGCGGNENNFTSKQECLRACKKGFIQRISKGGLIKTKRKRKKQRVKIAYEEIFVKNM


Legend:
[1] = molecular target: T1, mouse tissue factor pathway inhibitor …; experiment: equilibrium ELISA
[2] = molecular target: T2, human tissue factor pathway inhibitor …; experiment: competitive ELISA

variant/wild-type [1] [ratio]	variant/wild-type [2] [ratio]	Binder
15.2	6.6	4B7 HC_K58M HC_D62N (Fab, V domains shown) VH: QVQLQQSGPGLVKPSQTLSLTCAISGDSVSSNSAAWSWIRQSPGRGLEWLGIIYKRSMWYNNYAVSVKSRITINPDTSKNQFSLQLNSVTPEDTAVYYCARWHSDKHWGFDYWGQGTLVTVSS VL: DIVMTQSPLSLPVTPGEPASISCRSSQSLVFSDGNTYLNWYLQKPGQSPQLLIYKGSNRASGVPDRFSGSGSGTDFTLKISRVEAEDVGVYYCQQYDSYPLTFGQGTKVEIKR
31.1	8	4B7 HC_N61G HC_D62V (Fab, V domains shown) VH: QVQLQQSGPGLVKPSQTLSLTCAISGDSVSSNSAAWSWIRQSPGRGLEWLGIIYKRSKWYGVYAVSVKSRITINPDTSKNQFSLQLNSVTPEDTAVYYCARWHSDKHWGFDYWGQGTLVTVSS VL: DIVMTQSPLSLPVTPGEPASISCRSSQSLVFSDGNTYLNWYLQKPGQSPQLLIYKGSNRASGVPDRFSGSGSGTDFTLKISRVEAEDVGVYYCQQYDSYPLTFGQGTKVEIKR
1.4	2.2	4B7 HC_N61G (Fab, V domains shown) VH: QVQLQQSGPGLVKPSQTLSLTCAISGDSVSSNSAAWSWIRQSPGRGLEWLGIIYKRSKWYGDYAVSVKSRITINPDTSKNQFSLQLNSVTPEDTAVYYCARWHSDKHWGFDYWGQGTLVTVSS VL: DIVMTQSPLSLPVTPGEPASISCRSSQSLVFSDGNTYLNWYLQKPGQSPQLLIYKGSNRASGVPDRFSGSGSGTDFTLKISRVEAEDVGVYYCQQYDSYPLTFGQGTKVEIKR
2.1	3.2	4B7 HC_N32E (Fab, V domains shown) VH: QVQLQQSGPGLVKPSQTLSLTCAISGDSVSSESAAWSWIRQSPGRGLEWLGIIYKRSKWYNDYAVSVKSRITINPDTSKNQFSLQLNSVTPEDTAVYYCARWHSDKHWGFDYWGQGTLVTVSS VL: DIVMTQSPLSLPVTPGEPASISCRSSQSLVFSDGNTYLNWYLQKPGQSPQLLIYKGSNRASGVPDRFSGSGSGTDFTLKISRVEAEDVGVYYCQQYDSYPLTFGQGTKVEIKR
6.5	1.7	4B7 HC_S57K (Fab, V domains shown) VH: QVQLQQSGPGLVKPSQTLSLTCAISGDSVSSNSAAWSWIRQSPGRGLEWLGIIYKRKKWYNDYAVSVKSRITINPDTSKNQFSLQLNSVTPEDTAVYYCARWHSDKHWGFDYWGQGTLVTVSS VL: DIVMTQSPLSLPVTPGEPASISCRSSQSLVFSDGNTYLNWYLQKPGQSPQLLIYKGSNRASGVPDRFSGSGSGTDFTLKISRVEAEDVGVYYCQQYDSYPLTFGQGTKVEIKR
6.5	1.5	4B7 HC_S33G (Fab, V domains shown) VH: QVQLQQSGPGLVKPSQTLSLTCAISGDSVSSNGAAWSWIRQSPGRGLEWLGIIYKRSKWYNDYAVSVKSRITINPDTSKNQFSLQLNSVTPEDTAVYYCARWHSDKHWGFDYWGQGTLVTVSS VL: DIVMTQSPLSLPVTPGEPASISCRSSQSLVFSDGNTYLNWYLQKPGQSPQLLIYKGSNRASGVPDRFSGSGSGTDFTLKISRVEAEDVGVYYCQQYDSYPLTFGQGTKVEIKR
6	3.8	4B7 HC_N32D (Fab, V domains shown) VH: QVQLQQSGPGLVKPSQTLSLTCAISGDSVSSDSAAWSWIRQSPGRGLEWLGIIYKRSKWYNDYAVSVKSRITINPDTSKNQFSLQLNSVTPEDTAVYYCARWHSDKHWGFDYWGQGTLVTVSS VL: DIVMTQSPLSLPVTPGEPASISCRSSQSLVFSDGNTYLNWYLQKPGQSPQLLIYKGSNRASGVPDRFSGSGSGTDFTLKISRVEAEDVGVYYCQQYDSYPLTFGQGTKVEIKR
6.6	1.6	4B7 HC_S30R HC_S57K (Fab, V domains shown) VH: QVQLQQSGPGLVKPSQTLSLTCAISGDSVRSNSAAWSWIRQSPGRGLEWLGIIYKRKKWYNDYAVSVKSRITINPDTSKNQFSLQLNSVTPEDTAVYYCARWHSDKHWGFDYWGQGTLVTVSS VL: DIVMTQSPLSLPVTPGEPASISCRSSQSLVFSDGNTYLNWYLQKPGQSPQLLIYKGSNRASGVPDRFSGSGSGTDFTLKISRVEAEDVGVYYCQQYDSYPLTFGQGTKVEIKR
